In the supplement of paper PMC11865577:

Assays:
Test in all cases: pull-down binding Z-score (relative to library population); higher = stronger binding
[1] = tested on: TO-3-N3 (biotin conjugate); conditions: RNA library: Library-2
Summary of the method: (§1)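 Streptavidin beads with 100 pmol of biotin-conjugated small molecule were incubated for 60 min at 25 °C with 1 μg of heat-folded Cy5- or Cy3-end-labelled RNA library in phosphate/NaCl/KCl buffer. Bound RNA was eluted in hot SDS after three washes and hybridised to a DNA barcode microarray at 55.5 °C for 20 h. Each binding score is a library-referenced Z-score, computed after beads-only subtraction and a trimmed mean of barcoded replicate probes.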

[2] = tested on: TO-3-N3-2 (biotin conjugate); conditions: RNA library: Library-2
Summary of the method: as §1

[3] = tested on: G-clamp-N3 (biotin conjugate); conditions: RNA library: Library-1 (pre-miRNA loops + repeats)
Summary of the method: as §1

[4] = tested on: TO-N3-2 (biotin conjugate); conditions: RNA library: Library-2
Summary of the method: as §1

TO-N3 (biotin conjugate) = conditions: RNA library: Library-2
Summary of the method: as §1

| Sequence | pull-down binding Z-score [1] | pull-down binding Z-score [2] | pull-down binding Z-score [3] | pull-down binding Z-score [4] | pull-down binding Z-score (TO-N3 (biotin conjugate)) |
| --- | --- | --- | --- | --- | --- |
| GGCAGGUGUGGUUGGAGGAAGCAGCCUGAACCUGCC [hsa-mir-6778] | -0.114 | 0.333 | 0.663 | 0.361 | 0.227 |
| AUCAAAGUGGGGACUCAUGGGGAGAG [hsa-mir-4284] | 3.11 | 1.43 | 0.195 | 1.07 | 2.65 |
| GUUCGCUUAAUUUAUGACGAAUC [hsa-mir-487a] | -0.221 | -0.215 | 0.269 | -0.483 | -0.395 |
| UCAGCUGUAAUACAUGGAUUGGCUGG [hsa-mir-30b] | -0.368 | -0.198 | 0.592 | -0.252 | -0.379 |
| UGAGGAGUAGAACACUCCUUA [hsa-mir-491] | -0.282 | -0.448 | 0.0146 | -0.939 | -0.649 |
| UCCUUUUCUCUACCUUGUAGAGAAGCA [hsa-mir-3609] | 0.0918 | -0.379 | -0.207 | -0.258 | 0.281 |
| GCCAGUGUGUAAAAUGAGAACUGAUA [hsa-mir-3074] | 0.677 | 0.757 | 0.474 | 1.66 | 1.14 |
| GUGUUGGGUAUAAGUAACA [hsa-mir-1270] | -0.205 | 0.157 | -0.877 | 0.457 | 0.257 |
| AUGGUGUUUGUGAGUUGAUUGACAUCGU [hsa-mir-6506] | -0.398 | -0.457 | -0.212 | 0.0463 | -0.408 |
| UUGUUCUGAUGUACUACGACAA [hsa-mir-7-3] | -0.716 | -0.294 | -1.28 | -0.186 | -0.672 |
| UCCCCUCAGGA [hsa-mir-5703] | 0.0295 | -0.595 | 0.99 | -0.802 | -0.256 |
| CAGAGGGAGGCCAAGAAGACCUCUG [hsa-mir-4793] | -0.656 | -0.445 | 2.73 | 0.354 | -0.402 |
| CCUGCCCAAAUGGUGGAGCAGAUUCGAGGGGCAGG [hsa-mir-4436b-2_4436b-1] | -0.218 | 0.0731 | 2.51 | -0.125 | -0.282 |
| CUUUCUGUUGUCUAAAAGAAAAGAAAG [hsa-mir-520d] | -0.444 | -0.331 | 0.0447 | -0.127 | -0.415 |
| CCUCACCUGCUGAGAG [hsa-mir-3670-3_3670-2_3670-1_3670-4] | -0.258 | -0.133 | 0.409 | 0.19 | -0.143 |
| GUCUGCCAAAACCUUGGCAGAC [hsa-mir-3913-1] | -0.531 | -0.517 | 0.901 | -1.22 | -1.02 |
| UUUUUCCAUUGUAAGUAAUGGGAAAA [hsa-mir-548f-5] | -0.644 | -0.567 | 0.457 | -1.67 | -0.991 |
| GGGGCUCUU [hsa-mir-4634] | 0.0873 | 0.0655 | -0.697 | 0.21 | 0.365 |
| AGUUUCUGGAAGUUCUGACAUUCCAGAAACU [hsa-mir-3199-1] | -0.846 | -0.409 | -0.18 | -0.95 | -1.1 |

| Sequence | pull-down binding Z-score [1] | pull-down binding Z-score [2] | pull-down binding Z-score [3] | pull-down binding Z-score [4] | pull-down binding Z-score (TO-N3 (biotin conjugate)) |
| --- | --- | --- | --- | --- | --- |
| GCCAGACAUGCUCUUGC [hsa-mir-6894] | -0.504 | -0.349 | -1.34 | 0.707 | -0.472 |
| AGGCUGGUCUCAAACUCCU [hsa-mir-5096] | -0.118 | -0.228 | -0.82 | 0.128 | -0.0712 |
| AUUGCUGGACGCUGCCCUGGGCAU [hsa-mir-25] | 0.362 | 0.488 | -0.192 | 1.4 | 1.12 |
| CUUUGGUGGCUAUGGUUGACUGGGCCACUCAGAG [hsa-mir-4468] | -0.366 | -0.332 | 2.29 | 0.846 | -0.123 |
| UCGAGAGGUCAGAGGAUUGCUCCUGA [hsa-mir-5585] | 0.00526 | -0.227 | 3.56 | 1.67 | 0.496 |
| GCUGGAGUAAGGGCACGCCCGGGGCUGC [hsa-mir-4758] | 0.802 | 0.383 | 1.11 | 1.79 | 1.51 |
| AAUCCCUCUCUUUCUAGUUCUUCCUAGAGUGAGGAAAA [hsa-mir-320b-1] | -0.294 | -0.166 | -1.69 | -0.55 | -0.325 |
| AUCUAUUCCAGAAGAU [hsa-mir-4696] | -0.911 | -0.62 | 1.53 | -1.35 | -1.28 |
| GACUGGACAACAUGAUGAGCCCAAACCAAUC [hsa-mir-5092] | -0.245 | 0.166 | -1.85 | 0.433 | 0.0433 |
| CUGGGUUCGGCUGCUACCCCAAA [hsa-mir-6768] | 0.179 | 0.195 | -1.38 | 0.742 | 0.563 |
| GAUGCUGUCUAUUCUAAAGGUAC [hsa-mir-101-1] | -0.772 | -0.32 | -0.819 | 0.0666 | -0.577 |
| GCCUCUCUGAGCAUGCAUUCCUGAGACUC [hsa-mir-5695] | 0.286 | 0.0721 | -1.38 | 0.547 | 0.481 |
| AUUGAGAGUUCCUUCUCCUGCUCCUGAU [hsa-mir-6766] | -0.548 | -0.369 | -0.32 | -0.0576 | -0.462 |
| CUCACUGCAGAAUUAUUUUGAG [hsa-mir-4524a] | -0.62 | -0.267 | 0.934 | -0.99 | -0.869 |
| UUGUGUAUGUACUUAGCUGUACUAUA [hsa-mir-1244-1_1244-4_1244-2_1244-3] | -0.689 | -0.417 | 0.509 | -0.486 | -0.627 |
| UGUCGUAGAAAGUAAUGGCA [hsa-mir-548l] | 0.0469 | -0.0955 | 0.662 | -0.387 | -0.189 |
| GGAGAGUAUGGUCACAGCAGCAUCCUCC [hsa-mir-6780a] | -0.0714 | -0.326 | 0.186 | 0.36 | -0.0981 |
| CCUUCUACCAAGUUAAGCAUACUCAUUAGAAGG [hsa-mir-3914-2] | 0.653 | -0.151 | -0.275 | -0.346 | 0.418 |
